Target: the molecule itself
Test: native MS

B1: AAV8 capsid viral protein VP3 (natural protein)
chain: MAAGGGAPMADNNEGADGVGSSSGNWHCDSTWLGDRVITTSTRTWALPTYNNHLYKQISNGTSGGATNDNTYFGYSTPWGYFDFNRFHCHFSPRDWQRLINNNWGFRPKRLSFKLFNIQVKEVTQNEGTKTIANNLTSTIQVFTDSEYQLPYVLGSAHQGCLPPFPADVFMIPQYGYLTLNNGSQAVGRSSFYCLEYFPSQMLRTGNNFQFTYTFEDVPFHSSYAHSQSLDRLMNPLIDQYLYYLSRTQTTGGTANTQTLGFSQGGPNTMANQAKNWLPGPCYRQQRVSTTTGQNNNSNFAWTAGTKYHLNGRNSLANPGIAMATHKDDEERFFPSNGILIFGKQNAARDNADYSDVMLTSEEEIKTTNPVATEEYGIVADNLQQQNTAPQIGTVNSQGALPGMVWQNRDVYLQGPIWAKIPHTDGNFHPSPLMGGFGLKHPPPQILIKNTPVPADPPTTFNQSKLNSFITQYSTGQVSVEIEWELQKENSKRWNPEIQYTSNYYKSTSVDFAVNTEGVYSEPRPIGTRYLTRNL
Q: Does B1 bind?
A: Result: binds
